# T1: Yersinia entomophaga YenB (TcB component of the Yen-Tc toxin complex) (Yersinia entomophaga, UniProt B6A880 1-1487)
# T1 sequence: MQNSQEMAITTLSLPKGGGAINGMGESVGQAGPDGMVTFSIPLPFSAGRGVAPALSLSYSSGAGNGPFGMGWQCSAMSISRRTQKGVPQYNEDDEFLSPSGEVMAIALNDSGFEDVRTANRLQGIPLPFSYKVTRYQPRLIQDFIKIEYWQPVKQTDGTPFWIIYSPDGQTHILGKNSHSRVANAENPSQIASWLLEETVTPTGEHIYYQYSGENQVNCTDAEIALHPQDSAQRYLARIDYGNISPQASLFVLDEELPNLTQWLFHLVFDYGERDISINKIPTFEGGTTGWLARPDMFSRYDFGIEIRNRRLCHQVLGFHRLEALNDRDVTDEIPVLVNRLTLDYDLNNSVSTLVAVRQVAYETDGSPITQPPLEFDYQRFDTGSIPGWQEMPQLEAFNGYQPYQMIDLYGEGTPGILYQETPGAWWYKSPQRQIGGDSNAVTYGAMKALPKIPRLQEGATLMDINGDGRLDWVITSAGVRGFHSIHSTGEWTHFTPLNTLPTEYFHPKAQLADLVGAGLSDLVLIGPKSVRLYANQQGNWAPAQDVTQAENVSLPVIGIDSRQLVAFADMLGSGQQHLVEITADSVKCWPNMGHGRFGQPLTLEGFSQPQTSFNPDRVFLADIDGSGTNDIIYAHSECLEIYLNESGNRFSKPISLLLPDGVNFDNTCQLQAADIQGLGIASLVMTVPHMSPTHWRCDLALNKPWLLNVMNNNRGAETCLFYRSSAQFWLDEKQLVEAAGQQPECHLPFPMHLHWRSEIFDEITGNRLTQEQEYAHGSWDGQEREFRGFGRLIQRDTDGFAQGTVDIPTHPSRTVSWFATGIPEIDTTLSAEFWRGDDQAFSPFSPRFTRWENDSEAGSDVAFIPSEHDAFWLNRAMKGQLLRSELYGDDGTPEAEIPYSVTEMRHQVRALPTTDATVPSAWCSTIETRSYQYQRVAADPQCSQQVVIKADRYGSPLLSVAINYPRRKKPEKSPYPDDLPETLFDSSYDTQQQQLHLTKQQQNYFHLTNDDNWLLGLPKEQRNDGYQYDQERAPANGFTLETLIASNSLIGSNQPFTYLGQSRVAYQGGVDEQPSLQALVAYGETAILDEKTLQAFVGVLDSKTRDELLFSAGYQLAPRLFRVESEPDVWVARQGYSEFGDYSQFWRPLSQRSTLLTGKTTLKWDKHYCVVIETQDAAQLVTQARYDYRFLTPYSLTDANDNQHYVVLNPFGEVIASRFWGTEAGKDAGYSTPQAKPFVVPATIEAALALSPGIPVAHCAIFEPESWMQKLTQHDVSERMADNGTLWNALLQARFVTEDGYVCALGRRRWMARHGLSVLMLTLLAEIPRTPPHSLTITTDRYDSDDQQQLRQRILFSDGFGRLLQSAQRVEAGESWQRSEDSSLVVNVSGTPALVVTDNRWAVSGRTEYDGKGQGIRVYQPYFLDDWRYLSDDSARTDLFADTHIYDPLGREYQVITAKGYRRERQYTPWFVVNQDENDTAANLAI
# Tests used:
# [1] = molecular target: T1, Yersinia entomophaga YenB (TcB …); experiment: co-expression, co-purification by Ni-affinity and SEC
# [2] = molecular target: T1, Yersinia entomophaga YenB (TcB …); experiment: purification after precipitation of the C-terminal domain at pH 4.5-5.0
# [3] = molecular target: T1, Yersinia entomophaga YenB (TcB …); experiment: co-expression in E. coli, size-exclusion chromatography
# [4] = molecular target: T1, Yersinia entomophaga YenB (TcB …); experiment: X-ray crystal structure (figure legend)
# [5] = molecular target: T2, YenB/YenC2-N complex (hollow shell) (Yersinia entomophaga, UniProt B6A880 1-1487; B6A882 1-690); experiment: SAXS and crystal structure; encapsulation in the shell
# T2 construct: Heterodimer of YenB and YenC2-N. It is used here as the partner that encapsulates YenC2-C or GFP; also called TcB:TcC shell; BC shell
binder,measurement,setting,value
"Yersinia entomophaga YenC2 (TcC component) (other, Expressed as the whole protein; When co-expressed with YenB it self-cleaves after M690 into YenC2-N and YenC2-C, and both fragments stay in the complex) MDIQLFSKTPSVTVFDNRGLSVRDIAYRRHPDTPKVTEECITYHQFDFRGFLAQSLDPRLNHKEVTNFSYLTDLNGNIIYTQSVDAGNTLVLNDTEGRSVIAMTNISRGENGKDDLSLAVTRTFQYENAPLPGRPLSVTEQVNGENARITEHFVYAGNTPQEKNLNLAGQCVSYYDAAGLIQTDSVSLTGKPLSVSRKLLKNLDDTNILADWQGNDTSAWNSLLATEIYTTVTRTDAAGAVLTTIDAVGNQQRVAFDIAGQLSASWLTLKGGQEQVIIKVLTYSAAGQKLREEGGNGVVTTYTYEAETQRLIGIKTERPNGHAAGAKVLQDLRYEYDPVGNVLSITNDAEETRFWRNQKVVPENAYRYDSLYQLVSASGREVAGAGQQGSDLPSPLVPLPSDSSVYTNYTRTYTYDSAGNLMRIRHSAPATNNNYTLNITVSERSNRGVMSSLTENPADVDALFTASGSQKCLQQGQSLIWTPRGELRTVLLVARGETADDSESYRYDGSSQRILKISSQQTNHSARVQRALYLPGLEWRTMTGGVAEAENLQVICIGEAGRAQVRVLHWESGKPDGIINDQIRWSYDNLTCSSGLEVDGDGLVISMEEYYPYGGTAVWAARSHIETAYKTVRYSGKERDATGLYYYGFRYYQPWAGRWLSADPAGTVDGLNLYRMVRNNPLRLTDPDGMAPLDWLDLDTTNASRDIVKAIYQLNQIDGPHRGVRDTYQRMTESTGMILQETLNNEAVLKGIKQKDKEKKSRGMKFTNSKLKTYAAHAGVLNTLQPDPVYKDGFLNLPGSLGNKNTFPGVELIEDKVKPSLSQYHPDKLGKSQRWKPESSLGYYRVADTEAFITGIRSQYKSSGTDLHAVVEGRIRDHLLANNNVLPKMAGIAGLHAEVQALNYIISNPDIEGGNAERLNGSYIFTQRLVGDVNQDFPACYNCSGIISGLENVMTGRVNNDVRLKRRKSF",binding result,[1],binds
"N-terminal portion of YenC1 (other, Fragment left in complex with YenB after the C-terminal domain precipitated at low pH; also called YenC1 - N term; N-terminal portions of YenC) MNQFDSALHQGTPGVSVLDNRGHVIRELRYYRHPDTPQEIAERIAFHQYDSYGFISQSIDPRLAERRKQDSSVKPNLSYFTALSGEVLRTDGVDAGTIFSLNDIAARPAISISATGVSHTWQYEGENRPGRVLSRSEREKDREERIIERFYWAGSDASQKANNLAGQCLRHYNSAGLNQTLSIALTGTPISACFQPLLESAEPEWQGTNESAWLELLTPEIFTTYNRADANGETLVQTDAMGNIQRLAYDVAGFLKSSWLSLKGGQEQIIVKSLTYSAAGQKLQEEHGNGVLTTYSYEAETQRLIGIRTERPAGHLSGARVFQDLRYTYDPVGNVLRITNDAEATRFWRNQKVVPENTYIYDTLYQLVSANGREMANIPQQSSQLPTLSPIDNNAYTNYIRNYHYDSAGNLMQIRHTSAAANNSYTTNITVSKYSNRAVLSSLTDDVDKVEAFFDAAGRQNQLLPGQTLSWNARGELAKVTPVARDGQESDSETYRYDANSQRVSKMAIQQSNNNTQTRRVLYLAGLERRTIHQGNTLFETLLVVKIGEAGRAQVQAMHWELGQPTEVANDELRYSYDNLIGSSGLEVDGTGQLISQEEYYPYGGTAVWMARSQREASDKAYGYSGKERDATGLYYYGFRYYQPWAGRWLSADPAGTIDGLNLFRMVRNNPIVLHDPDGL",binding result,[2],binds
"Yersinia entomophaga YenC1 (TcC component) (other, Expressed as the whole protein; When co-expressed with YenB it auto-proteolyses into two fragments, and both co-elute with YenB) MNQFDSALHQGTPGVSVLDNRGHVIRELRYYRHPDTPQEIAERIAFHQYDSYGFISQSIDPRLAERRKQDSSVKPNLSYFTALSGEVLRTDGVDAGTIFSLNDIAARPAISISATGVSHTWQYEGENRPGRVLSRSEREKDREERIIERFYWAGSDASQKANNLAGQCLRHYNSAGLNQTLSIALTGTPISACFQPLLESAEPEWQGTNESAWLELLTPEIFTTYNRADANGETLVQTDAMGNIQRLAYDVAGFLKSSWLSLKGGQEQIIVKSLTYSAAGQKLQEEHGNGVLTTYSYEAETQRLIGIRTERPAGHLSGARVFQDLRYTYDPVGNVLRITNDAEATRFWRNQKVVPENTYIYDTLYQLVSANGREMANIPQQSSQLPTLSPIDNNAYTNYIRNYHYDSAGNLMQIRHTSAAANNSYTTNITVSKYSNRAVLSSLTDDVDKVEAFFDAAGRQNQLLPGQTLSWNARGELAKVTPVARDGQESDSETYRYDANSQRVSKMAIQQSNNNTQTRRVLYLAGLERRTIHQGNTLFETLLVVKIGEAGRAQVQAMHWELGQPTEVANDELRYSYDNLIGSSGLEVDGTGQLISQEEYYPYGGTAVWMARSQREASDKAYGYSGKERDATGLYYYGFRYYQPWAGRWLSADPAGTIDGLNLFRMVRNNPIVLHDPDGLAPGFFERISSFRKKDTLTISSLKGTGPFYTRSESEIDIDFLFSRQDRDKDFPPQNHKELSAEDRREVLEVSSGENITSANKSSKWYAGTHWETKPLKNNTDLVVLHNGVQGAAGININLNDIKPGRSVLVTAGTLTGCTMITGVKGNNFYALHAGTGTPSENWVTGEHGVTDNFRMLNKLIPDAGIDLNPEAVNDSLLTILDYFDNGTIAYNGKKGSEIHRDADNILNYRTTGYENTVGVSFSLLTKDKNGEVSASTLLELGELKPHKKHRTRGQFGMTELKYEARKNTVVKLR",binding result,[3],binds
"conserved N-terminal 76 kDa portion of YenC2 (YenC2-N) (other, Made by self-cleavage of YenC2 after M690 when co-expressed with YenB; The C-terminal fragment was removed at pH 4.5; also called YenC2NTR; YenC2 - N term) MDIQLFSKTPSVTVFDNRGLSVRDIAYRRHPDTPKVTEECITYHQFDFRGFLAQSLDPRLNHKEVTNFSYLTDLNGNIIYTQSVDAGNTLVLNDTEGRSVIAMTNISRGENGKDDLSLAVTRTFQYENAPLPGRPLSVTEQVNGENARITEHFVYAGNTPQEKNLNLAGQCVSYYDAAGLIQTDSVSLTGKPLSVSRKLLKNLDDTNILADWQGNDTSAWNSLLATEIYTTVTRTDAAGAVLTTIDAVGNQQRVAFDIAGQLSASWLTLKGGQEQVIIKVLTYSAAGQKLREEGGNGVVTTYTYEAETQRLIGIKTERPNGHAAGAKVLQDLRYEYDPVGNVLSITNDAEETRFWRNQKVVPENAYRYDSLYQLVSASGREVAGAGQQGSDLPSPLVPLPSDSSVYTNYTRTYTYDSAGNLMRIRHSAPATNNNYTLNITVSERSNRGVMSSLTENPADVDALFTASGSQKCLQQGQSLIWTPRGELRTVLLVARGETADDSESYRYDGSSQRILKISSQQTNHSARVQRALYLPGLEWRTMTGGVAEAENLQVICIGEAGRAQVRVLHWESGKPDGIINDQIRWSYDNLTCSSGLEVDGDGLVISMEEYYPYGGTAVWAARSHIETAYKTVRYSGKERDATGLYYYGFRYYQPWAGRWLSADPAGTVDGLNLYRMVRNNPLRLTDPDGM",binding result,[4],binds
"C-terminal region of YenC2 (YenC2-C) (other, also called YenC-C; TcC-C) APLDWLDLDTTNASRDIVKAIYQLNQIDGPHRGVRDTYQRMTESTGMILQETLNNEAVLKGIKQKDKEKKSRGMKFTNSKLKTYAAHAGVLNTLQPDPVYKDGFLNLPGSLGNKNTFPGVELIEDKVKPSLSQYHPDKLGKSQRWKPESSLGYYRVADTEAFITGIRSQYKSSGTDLHAVVEGRIRDHLLANNNVLPKMAGIAGLHAEVQALNYIISNPDIEGGNAERLNGSYIFTQRLVGDVNQDFPACYNCSGIISGLENVMTGRVNNDVRLKRRKSF",binding result,[5],binds

# From patent publication US20160075743A1 (AGRESEARCH, published 2016)
